# How the values were obtained:
# HLA-B*07:02 = HLA-B*07:02 (Homo sapiens, UniProt P01889); test: MHC binding assay, UV-ligand exchange with β2m ELISA, HLA-B*07:02; conditions: binding to HLA-B*07:02, UV-ligand exchange
# Text: (§1) Candidate peptides for T cell based therapies according to the present invention were further tested for their MHC binding capacity (affinity). The individual peptide-MHC complexes were produced by UV-ligand exchange, where a UV-sensitive peptide is cleaved upon UV-irradiation, and exchanged with the peptide of interest as analyzed. Only peptide candidates that can effectively bind and stabilize the peptide-receptive MHC molecules prevent dissociation of the MHC complexes. To determine the yield of the exchange reaction, an ELISA was performed based on the detection of the light chain (β2m) of stabilized MHC complexes. The assay was performed as generally described in Rodenko et al. (Rodenko et al., 2006).
# (§2) 96 well MAXISorp plates (NUNC) were coated over night with 2 ug/ml streptavidin in PBS at room temperature, washed 4× and blocked for 1 h at 37° C. in 2% BSA containing blocking buffer. Refolded HLA-A*02:01/MLA-001 monomers served as standards, covering the range of 15-500 ng/ml. Peptide-MHC monomers of the UV-exchange reaction were diluted 100-fold in blocking buffer. Samples were incubated for 1 h at 37° C., washed four times, incubated with 2 ug/ml HRP conjugated anti-β2m for 1 h at 37° C., washed again and detected with TMB solution that is stopped with […]. Absorption was measured at 450 nm. Candidate peptides that show a high exchange yield (preferably higher than 50%, most preferred higher than 75%) are generally preferred for a generation and production of antibodies or fragments thereof, and/or T cell receptors or fragments thereof, as they show sufficient avidity to the MHC molecules and prevent dissociation of the MHC complexes.
# HLA-B*44:02 = HLA-B*44:02 (Homo sapiens, UniProt P01889, A223V/A65T/A93T/A95T/D201E/D98Y/E176V/E187L/E204Q/E69K/G107R/H137Y/K202T/L105A/L119I/N104T/N87E/Q56L/Q94N/R106L/R155S/R180D/S101N/S121R/S35A/S48T/T118I/V36M/W191S/Y140D/Y91S); test: MHC binding assay, UV-ligand exchange with β2m ELISA, HLA-B*44:02; conditions: binding to HLA-B*44:02, UV-ligand exchange
# Text: as §1, §2
Substance,"Peptide exchange (MHC class I binding score, peptide exchange yield) (HLA-B*07:02)","Peptide exchange (MHC class I binding score, peptide exchange yield) (HLA-B*44:02)"
77 (RPNGNSLFTSA; listed as Homo sapiens) [compound 77],“+++” (>50 = +++),–
78 (RPRGLALVL; listed as Homo sapiens) [compound 78],“+++” (>50 = +++),–
79 (SPVPSHWMVA; listed as Homo sapiens) [compound 79],“+++” (>50 = +++),–
80 (KPLFKVSTF; listed as Homo sapiens) [compound 80],“++” (>20% = ++),–
81 (SESPWLHAPSL; listed as Homo sapiens) [compound 81],“+++” (>50 = +++),–
82 (APFGFLGMQSL; listed as Homo sapiens) [compound 82],“+++” (>50 = +++),–
83 (IPVSRPIL; listed as Homo sapiens) [compound 83],“+++” (>50 = +++),–
84 (SPKLQIAAM; listed as Homo sapiens) [compound 84],“+++” (>50 = +++),–
85 (IPVSHPVL; listed as Homo sapiens) [compound 85],“++” (>20% = ++),–
86 (IPASHPVL; listed as Homo sapiens) [compound 86],“++” (>20% = ++),–
87 (FPAPILRAV; listed as Homo sapiens) [compound 87],“+++” (>50 = +++),–
88 (MPDPHLYHQM; listed as Homo sapiens) [compound 88],“++” (>20% = ++),–
89 (FPETVNNLL; listed as Homo sapiens) [compound 89],“++” (>20% = ++),–
90 (KPKAAKPKA; listed as Homo sapiens) [compound 90],“++” (>20% = ++),–
91 (KPKAAKPKAA; listed as Homo sapiens) [compound 91],“++” (>20% = ++),–
92 (KAKKPAGAA; listed as Homo sapiens) [compound 92],“++” (>20% = ++),–
93 (KARKSAGAA; listed as Homo sapiens) [compound 93],“+++” (>50 = +++),–
94 (KPKAAKPKKAAA; listed as Homo sapiens) [compound 94],“++” (>20% = ++),–
95 (KPKAAKPKTA; listed as Homo sapiens) [compound 95],“++” (>20% = ++),–
96 (KPKKAPKSPA; listed as Homo sapiens) [compound 96],“+++” (>50 = +++),–

Substance,"Peptide exchange (MHC class I binding score, peptide exchange yield) (HLA-B*07:02)","Peptide exchange (MHC class I binding score, peptide exchange yield) (HLA-B*44:02)"
97 (LPFGKIPIL; listed as Homo sapiens) [compound 97],“++” (>20% = ++),–
98 (YPIALTRAEM; listed as Homo sapiens) [compound 98],“+++” (>50 = +++),–
99 (SPRAINNLVL; listed as Homo sapiens) [compound 99],“++++” (>75% = ++++),–
100 (YPYQERVFL; listed as Homo sapiens) [compound 100],“++” (>20% = ++),–
101 (NPRYPNYMF; listed as Homo sapiens) [compound 101],“+++” (>50 = +++),–
102 (LPLSMEAKI; listed as Homo sapiens) [compound 102],“++” (>20% = ++),–
103 (IPANTEKASF; listed as Homo sapiens) [compound 103],“++” (>20% = ++),–
104 (RPMTPTQIGPSL; listed as Homo sapiens) [compound 104],“+++” (>50 = +++),–
105 (NPLTKLLAI; listed as Homo sapiens) [compound 105],“+++” (>50 = +++),–
106 (KAFKWFSAL; listed as Homo sapiens) [compound 106],“++” (>20% = ++),–
183 (GESQDSTTAL; listed as Homo sapiens) [compound 183],–,“++” (>20% = ++)
184 (RMPPFTQAF; listed as Homo sapiens) [compound 184],–,“++” (>20% = ++)
185 (SEGDNVESW; listed as Homo sapiens) [compound 185],–,“+++” (>50 = +++)
186 (NEQKIVRF; listed as Homo sapiens) [compound 186],–,“+” (>10% = +)
187 (SDAQRPSSF; listed as Homo sapiens) [compound 187],–,“+” (>10% = +)
225 (LPARFYQAL; listed as Homo sapiens) [compound 225],“++++” (>75% = ++++),–
226 (YLNRHLHTW; listed as Homo sapiens) [compound 226],“++” (>20% = ++),–
227 (APINKAGSFL; listed as Homo sapiens) [compound 227],“++++” (>75% = ++++),–
228 (SPRITFPSL; listed as Homo sapiens) [compound 228],“++++” (>75% = ++++),–
257 (KEFFFVKVF; listed as Homo sapiens) [compound 257],–,“+++” (>50 = +++)

Substance,"Peptide exchange (MHC class I binding score, peptide exchange yield) (HLA-B*07:02)","Peptide exchange (MHC class I binding score, peptide exchange yield) (HLA-B*44:02)"
258 (EELFRDGVNW; listed as Homo sapiens) [compound 258],–,“+++” (>50 = +++)
259 (EENTLVQNY; listed as Homo sapiens) [compound 259],–,“++” (>20% = ++)
260 (AEIGEGAYGKVF; listed as Homo sapiens) [compound 260],–,“+++” (>50 = +++)
261 (NEIEHIPVW; listed as Homo sapiens) [compound 261],–,“+++” (>50 = +++)
262 (QENQAETHAW; listed as Homo sapiens) [compound 262],–,“+++” (>50 = +++)
263 (REAGFQVKAY; listed as Homo sapiens) [compound 263],–,“+++” (>50 = +++)
264 (SEDHSGSYW; listed as Homo sapiens) [compound 264],–,“+++” (>50 = +++)
265 (QEVDASIFKAW; listed as Homo sapiens) [compound 265],–,“+++” (>50 = +++)
266 (VDASIFKAW; listed as Homo sapiens) [compound 266],–,“++” (>20% = ++)
267 (KEKFPINGW; listed as Homo sapiens) [compound 267],–,“+++” (>50 = +++)
268 (NEDKGTKAW; listed as Homo sapiens) [compound 268],–,“++” (>20% = ++)
269 (KELEDLNKW; listed as Homo sapiens) [compound 269],–,“+++” (>50 = +++)
270 (AESEDLAVHL; listed as Homo sapiens) [compound 270],–,“++” (>20% = ++)
271 (AESEDLAVHLY; listed as Homo sapiens) [compound 271],–,“++” (>20% = ++)
272 (KEFELRSSW; listed as Homo sapiens) [compound 272],–,“+++” (>50 = +++)
273 (AEIEIVKEEF; listed as Homo sapiens) [compound 273],–,“++” (>20% = ++)
274 (GEAVTDHPDRLW; listed as Homo sapiens) [compound 274],–,“+++” (>50 = +++)
275 (TENPLTKLL; listed as Homo sapiens) [compound 275],–,“++++” (>75% = ++++)
276 (EEEGNLLRSW; listed as Homo sapiens) [compound 276],–,“+++” (>50 = +++)
277 (EEGNLLRSW; listed as Homo sapiens) [compound 277],–,“+++” (>50 = +++)
